From PMC2275666 (The EMBO Journal, 2008)

Legend:
Experiment in all cases: pull-down
6H–hTFIIEα E383A = biological target: T1, 6H–hTFIIEα E383A (human, UniProt P29083 1-439, E383A)
T1 sequence: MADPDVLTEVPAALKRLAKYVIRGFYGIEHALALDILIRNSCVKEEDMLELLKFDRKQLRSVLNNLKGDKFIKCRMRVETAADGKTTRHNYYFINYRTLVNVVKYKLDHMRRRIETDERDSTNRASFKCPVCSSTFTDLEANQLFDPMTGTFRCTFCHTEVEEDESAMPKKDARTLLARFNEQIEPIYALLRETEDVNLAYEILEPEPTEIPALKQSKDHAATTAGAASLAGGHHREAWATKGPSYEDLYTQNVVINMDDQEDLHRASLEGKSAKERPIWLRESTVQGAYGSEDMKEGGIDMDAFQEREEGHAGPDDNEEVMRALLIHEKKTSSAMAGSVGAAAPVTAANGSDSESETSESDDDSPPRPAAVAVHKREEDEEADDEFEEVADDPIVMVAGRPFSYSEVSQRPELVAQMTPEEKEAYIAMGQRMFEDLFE

[1] = biological target: T2, 6H–hTFIIEα wild type (full-length hTFIIEα) (human, UniProt P29083 1-439)
T2 sequence: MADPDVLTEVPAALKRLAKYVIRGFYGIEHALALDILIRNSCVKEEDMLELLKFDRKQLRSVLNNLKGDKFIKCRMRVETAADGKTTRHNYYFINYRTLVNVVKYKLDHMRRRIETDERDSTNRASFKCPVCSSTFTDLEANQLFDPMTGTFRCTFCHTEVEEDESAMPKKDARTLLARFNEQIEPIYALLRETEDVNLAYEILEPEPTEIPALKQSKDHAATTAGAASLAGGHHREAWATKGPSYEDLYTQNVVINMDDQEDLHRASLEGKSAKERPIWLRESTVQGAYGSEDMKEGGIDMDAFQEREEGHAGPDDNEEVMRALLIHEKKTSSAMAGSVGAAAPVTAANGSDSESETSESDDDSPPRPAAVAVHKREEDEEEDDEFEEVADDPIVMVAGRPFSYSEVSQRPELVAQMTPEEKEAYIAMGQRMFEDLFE

6H–hTFIIEα F387A = biological target: T3, 6H–hTFIIEα F387A (human, UniProt P29083 1-439, F387A)
T3 sequence: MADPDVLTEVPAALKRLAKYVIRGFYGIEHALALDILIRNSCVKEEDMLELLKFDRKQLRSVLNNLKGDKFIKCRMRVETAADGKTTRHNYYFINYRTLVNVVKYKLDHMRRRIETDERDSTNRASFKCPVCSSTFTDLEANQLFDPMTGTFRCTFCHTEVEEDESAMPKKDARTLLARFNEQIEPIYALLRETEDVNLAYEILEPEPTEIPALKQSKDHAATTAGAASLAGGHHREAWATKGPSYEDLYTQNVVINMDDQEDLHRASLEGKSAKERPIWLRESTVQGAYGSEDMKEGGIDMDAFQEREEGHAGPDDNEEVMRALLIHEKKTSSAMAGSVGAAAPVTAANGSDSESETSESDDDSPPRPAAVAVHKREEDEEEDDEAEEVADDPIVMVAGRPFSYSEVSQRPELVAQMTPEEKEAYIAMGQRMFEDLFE

6H–hTFIIEα V390A = biological target: T4, 6H–hTFIIEα V390A (human, UniProt P29083 1-439, V390A)
T4 sequence: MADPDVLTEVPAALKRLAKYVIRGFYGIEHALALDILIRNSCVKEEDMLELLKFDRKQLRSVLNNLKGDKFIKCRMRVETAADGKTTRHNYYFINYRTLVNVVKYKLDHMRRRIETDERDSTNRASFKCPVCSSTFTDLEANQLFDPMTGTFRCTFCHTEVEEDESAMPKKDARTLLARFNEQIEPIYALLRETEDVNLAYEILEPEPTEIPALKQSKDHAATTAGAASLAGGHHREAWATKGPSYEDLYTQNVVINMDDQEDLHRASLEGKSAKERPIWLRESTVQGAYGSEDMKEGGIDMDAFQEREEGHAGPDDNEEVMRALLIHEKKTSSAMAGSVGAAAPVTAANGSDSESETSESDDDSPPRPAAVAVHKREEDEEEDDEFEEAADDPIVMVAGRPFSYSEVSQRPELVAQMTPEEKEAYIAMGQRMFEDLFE

6H–hTFIIEα V390K = biological target: T5, 6H–hTFIIEα V390K (human, UniProt P29083 1-439, V390K)
T5 sequence: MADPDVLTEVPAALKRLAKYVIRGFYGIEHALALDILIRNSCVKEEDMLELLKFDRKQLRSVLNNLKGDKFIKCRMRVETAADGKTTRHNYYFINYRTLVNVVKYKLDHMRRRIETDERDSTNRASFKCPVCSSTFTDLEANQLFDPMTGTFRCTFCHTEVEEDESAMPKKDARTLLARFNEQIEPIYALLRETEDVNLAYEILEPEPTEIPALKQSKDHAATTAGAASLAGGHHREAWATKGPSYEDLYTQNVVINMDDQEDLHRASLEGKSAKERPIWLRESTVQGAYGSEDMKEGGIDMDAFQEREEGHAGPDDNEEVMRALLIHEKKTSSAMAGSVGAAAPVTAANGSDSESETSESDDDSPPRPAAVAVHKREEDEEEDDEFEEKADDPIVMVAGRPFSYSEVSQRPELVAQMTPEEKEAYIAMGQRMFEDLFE

binding result (6H–hTFIIEα E383A): binds | binding result [1]: binds | binding result (6H–hTFIIEα F387A): binds | binding result (6H–hTFIIEα V390A): binds | binding result (6H–hTFIIEα V390K): binds
B1: GST-tagged hTFIIEβ (natural protein)
chain: MDPSLLRERELFKKRALSTPVVEKRSASSESSSSSSKKKKTKVEHGGSSGSKQNSDHSNGSFNLKALSGSSGYKFGVLAKIVNYMKTRHQRGDTHPLTLDEILDETQHLDIGLKQKQWLMTEALVNNPKIEVIDGKYAFKPKYNVRDKKALLRLLDQHDQRGLGGILLEDIEEALPNSQKAVKALGDQILFVNRPDKKKILFFNDKSCQFSVDEEFQKLWRSVTVDSMDEEKIEEYLKRQGISSMQESGPKKVAPIQRRKKPASQKKRRFKTHNEHLAGVLKDYSDITSSK
